Earlier results on one molecule are cited in patent publication US12653898B2, “Polyoxyethylene derivatives and conjugates thereof” (NATIONAL UNIVERSITY CORPORATION HOKKAIDO UNIVERSITY, priority 2023, dated 2026).

Read-outs that look alike come from different tables or passages of the source.

For the series the following is noted: under physiological conditions.

B1: conjugate of bovine pancreas-derived ribonuclease A (RNase A) and compound 7: conjugate of RNase A and compound 7 (1-benzyl-1H-1,2,3-triazole-4-carbaldehyde) of WO 2020/175680 (conjugate, UniProt P61823 27-150, looked up)
Ribonuclease pancreatic: KETAAAKFERQHMDSSTSAASSSNYCNQMMKSRNLTKDRCKPVNTFVHESLADVQAVCSQKNVACKNGQTNCYQSYSTMSITDCRETGSSKYPNCAYKTTQANKHIIVACEGNPYVPVHFDASV
modifications: triazole carbaldehyde compound 7 conjugate
Consider B1, for which the degradation half-life is, setting by setting: (FIG. 54 of WO 2020/175680) 12 to 18 h; (comparison value from WO 2020/175680) 12 to 18 h.
